The source of these data is the supplement of paper PMC12042874.

± gives the uncertainty stated by the source.

The nature of this series: amyloid nucleation score (Sup35N fusion, yeast selection) (log enrichment); library NNK3; higher = more nucleation; inactive = no reads after selection. In outline:
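The nucleation score is the DiMSum log enrichment of output over input reads, centred on the mode score of non-aggregating sequences. Only sequences with 100 or more input reads were scored, using Illumina sequencing of input and output plasmid inserts. Psi-negative yeast expressing Sup35N fused to peptides of 20 random codons were induced 24 hours with 100 μM copper sulfate and grown 7 days at 30°C on medium lacking adenine and uracil.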
With NNDMCLYLTGRRFKG, the amyloid nucleation score entry is “inactive”.

As to NNLFELPWKFYEQRNVAELM, the amyloid nucleation score result is “inactive”.

For NNLMLV, the amyloid nucleation score entry is “inactive”.

Turning to NNLTEEEMDLAPTVSHYLYK, the amyloid nucleation score entry is “inactive”.

Turning to NNLVPYLVWYCVTRNKTNGN, the amyloid nucleation score entry is “inactive”.

Turning to NNNPVGILQNSCVGVIFNHS, the amyloid nucleation score is -0.517 ± 1.

Consider NNRDDK, for which the amyloid nucleation score entry is “inactive”.

As for NNRLRGHF, the amyloid nucleation score entry is “inactive”.

For NPECVGDAWTVVVDYTSLWE, the amyloid nucleation score entry is “inactive”.

Take NPKLG: the amyloid nucleation score entry was “inactive”.

In the case of NPPKDGYMLTWIIYDRKAGT, the amyloid nucleation score entry is “inactive”.

In turn, NQCPIRYLWL had an amyloid nucleation score of 1.43 ± 0.11.

For NQEVSTGNILGLLAVTSCRD, the amyloid nucleation score result is “inactive”.

As to NQQWISTRVVLKAPAFERRT, the amyloid nucleation score result is “inactive”.

NQVMKSNVVYYKATVNNMCF yielded an amyloid nucleation score of 2.09 ± 0.071.

Take NRFYVD: the amyloid nucleation score result was “inactive”.

In the case of NRIFSLTM, the amyloid nucleation score result was “inactive”.

Consider NRIFSVCECMVYGICECVCR, for which the amyloid nucleation score entry is “inactive”.

For NRNRYMFLITITHY, the amyloid nucleation score result is “inactive”.

As to NRSTWCW, the amyloid nucleation score entry was “inactive”.

Substance NRTFNYNIQNVGSSWEL gave an amyloid nucleation score of 0.233 ± 0.19.

NRTQRISWIWVLTPSDVLVS: the amyloid nucleation score entry is “inactive”.

For NSCLRLSSHRMMFLAIAVTC, the amyloid nucleation score result was “inactive”.

For the substance NSCYFFNLHYVYHETANCFI, the amyloid nucleation score came to 3.2 ± 0.068.

As for NSDSFML, the amyloid nucleation score result was “inactive”.

Take NSETRRIHSKVKLMLIVRLA: the amyloid nucleation score result is “inactive”.

As for NSFDCVRDWLPLIF, the amyloid nucleation score result is “inactive”.

In turn, NSFMCCRSWDTN had an amyloid nucleation score of 2.71 ± 0.069.

For NSFVASEFKRLYRQWSRVHE, the amyloid nucleation score entry was “inactive”.

For the substance NSGDGSGVRFYSDNMDTYMA, the amyloid nucleation score was determined as 0.185 ± 0.88.

In the case of NSGWWRVKHNTSQDGSKRSG, the amyloid nucleation score result was “inactive”.

NSGYRWEKSLSWMALLGYGC: the amyloid nucleation score is -0.788 ± 1.1.

Regarding NSGYVYGIQCNVWVLAFMGF, the amyloid nucleation score was 2.7 ± 0.068.

Take NSKGMLCWLTA: the amyloid nucleation score result is “inactive”.

As to NSNCYPLVI, the amyloid nucleation score entry is “inactive”.

For the substance NSNDRK, the amyloid nucleation score entry was “inactive”.

NSNNSGTVKFRNIRLYSTSL: the amyloid nucleation score result is “inactive”.

NSSEGDDY: the amyloid nucleation score entry is “inactive”.

Consider NSTDRGLEFRTDHYHT, for which the amyloid nucleation score entry was “inactive”.

Take NSTKLKPYWGPG: the amyloid nucleation score entry was “inactive”.

With NSTNMDSFGIPLNRILWMLN, the amyloid nucleation score entry was “inactive”.

Consider NSVRLCRCEVIGQTIRDHGF, for which the amyloid nucleation score result was “inactive”.

As to NSYFKPVKSCNLQLGEVTLQ, the amyloid nucleation score entry is “inactive”.

Regarding NTAPNISRSVIVCYYDDGEK, the amyloid nucleation score result was “inactive”.

The substance NTAYHKRRGW yielded an amyloid nucleation score of -0.004 ± 0.71.

NTFVPVLVFGFYYVLIMISN: the amyloid nucleation score entry is “inactive”.

On to NTGWSF, for which the amyloid nucleation score entry is “inactive”.

On to NTHNNIGGRYAKYGWLMRSK, for which the amyloid nucleation score result is “inactive”.

For NTIDYHYKVSCSHGYSLQSY, the amyloid nucleation score result is “inactive”.

As to NTPVGLINYSGDTWLMAIRW, the amyloid nucleation score result is “inactive”.

In turn, NVAFQCQKLTLLKGKLEPDR yielded an amyloid nucleation score of 0.272 ± 0.93.

In the case of NVAGM, the amyloid nucleation score result was “inactive”.

As to NVGMSKNVFGM, the amyloid nucleation score result was “inactive”.

NVIISQA: the amyloid nucleation score entry was “inactive”.

Take NVKTGNKPRDTQSRYVLPES: the amyloid nucleation score result is “inactive”.
